{"source": "paper PMC3187862", "biological_target": "T1, DoeX (AsnC/Lrp family) (Halomonas elongata DSM 2581T, UniProt E1V7V9 1-158)", "T1 sequence": "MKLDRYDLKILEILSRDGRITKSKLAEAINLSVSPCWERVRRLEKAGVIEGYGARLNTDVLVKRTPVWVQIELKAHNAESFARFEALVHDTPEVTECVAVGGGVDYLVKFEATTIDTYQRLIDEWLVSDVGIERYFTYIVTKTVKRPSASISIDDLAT", "assay": "EMSA"}
{"binder": "F3 (dsDNA) DNA 1: AGAGGCAGCCGGATATCGGTGACATGATCGTTTGGCGAGCGATTTC DNA 2: GAAATCGCTCGCCAAACGATCATGTCACCGATATCCGGCTGCCTCT", "values": [{"measurement": "binding result", "result": "binds"}]}
